# Source: patent US20220372542A1, “DETECTION OF ANALYTES BY PROTEIN SWITCHES” (ABBOTT DIABETES CARE INC., priority 2019, published 2022)
# Tests used:
# [1] = Beaker calibration: glucose sensitivity of protein switch sensors; assay type: biochemical; details: Sensor active area 0.33 mm^2 with PVP membrane; 100 mM PBS, room temperature, 1-30 mM glucose
# [2] = Warfarin inhibition of protein switch sensors in test beaker; assay type: biochemical; details: 100 mM PBS 33° C., 10 mM NAD+; for effect of increasing warfarin concentrations on sensor signal: 5 mM glucose, 10, 30, 80, 180, 300 uM warfarin, FIGS. 12A, 12B, 13; for sensor response to glucose addition: glucose 5 mM
# Method: Warfarin Sensor. Experimental GDH-105 and GDH-2016 glucose-responsive active areas were prepared using a single-layer active area system. The GDH was obtained from Codexis, Redwood City, Calif. The active area was coated onto a carbon working electrode in a single layer composition (Table 8). Following deposition of the active area, the active area was cured for three days at RT.
# Experimental procedure. Testing of the GDH-105 and GDH-2016 sensors was conducted by immersing the electrode in a 100 mM PBS buffer solution at 33° C. NAD^+ (5 mM) supplied to a test beaker containing PBS buffer followed by the addition of glucose (1 mM).
# Evolved Warfarin sensors. GDH-105, GDH-2016, GDH-2025, GDH-2026, GDH-2027, and GDH-2028 glucose-responsive active areas were prepared using a single-layer active area system. The GDH was obtained from Codexis, Redwood City, Calif. The active area (0.33 mm^2) was coated onto a carbon working electrode in a single layer composition (Table 8). Following deposition of the active area, the active area was cured for three days at room temperature.
# Experimental procedure. Testing of the GDH-105, GDH-2016, GDH-2025, GDH-2026, GDH-2027, and GDH-2028 sensors was conducted by immersing the electrode in a 100 mM PBS buffer solution at 33° C. NAD^+(10 mM) supplied to a test beaker containing PBS buffer followed by the addition of glucose (5 mM).
# [3] = Beaker stability (long-term stability) of protein switch sensors; assay type: physicochemical; details: Sensor in 30 mM glucose in 100 mM PBS at 33° C., after 1 day
# Method: Beaker Stability. The beaker stability (long-term stability) of the sensor GDH-105 and the sensors comprising the protein switches GDH-2004, GDH-2007, GDH-2008, GDH-2009, GDH-2010, GDH-2011, GDH-2015, GDH-2018, GDH-2019, GDH-2005, GDH-2013, GDH-2016, and GDH-2024 described above were evaluated in 30 mM glucose in 100 mM PBS at 33° C. as shown in FIG. 8. After 4 days, each of the signals experienced a sensor drop (decreased stability for detecting glucose) at different rates, as shown in Table 10.
# Beaker Stability. The beaker stability (long-term stability) of the GDH-105, GDH-2025, GDH-2026, GDH-2027, and GDH-2028 sensors were evaluated in 30 mM glucose in 100 mM PBS at 33° C. as shown in FIG. 11. After 1 day, each of the signals experience sensor drop (decreased stability for detecting glucose) of different rates, as provided in Table 12.
Molecule,Sensitivity [1] [nA/mM],effect of increasing warfarin concentrations on sensor signal [2],sensor response to glucose addition [2],Signal drop (1 day) [3] [%]
"GDH-2025: Warfarin protein switch, SEQ ID NO: 1; SEQ ID NO:11 with mutation C96F (protein) AMYPDLKGKVVAITGAASGLGKAMAIRFGKEQAKVVINYYSNKQDPNEVKEEVIKAGGEAVVVQGDVTKEEDVKNIVQTAIKEFGTLDIMINNAGLFNPVPSHEMPLKDWDKVIGTNLTGAFLGSREAIKYFVENDIKGNVINMSSVHEVIPWPLASHYTASKGGMKLMTKTLALEYAPKGIRVNNIGPGAINTTINAEKFADPKQKADVESMIPMGYIGEPEEIAAVAAWLASKEASYVTGITLFADGGMTLYPSFQAGRG",0.32,inhibition,showed response to glucose addition,−58
"GDH-2028: Warfarin protein switch, SEQ ID NO: 15; mutations C96F; L252V (protein) MYPDLKGKVVAITGAASGLGKAMAIRFGKEQAKVVINYYSNKQDPNEVKEEVIKAGGEAVVVQGDVTKEEDVKNIVQTAIKEFGTLDIMINNAGLFNPVPSHEMPLKDWDKVIGTNLTGAFLGSREAIKYFVENDIKGNVINMSSVHEVIPWPLASHYTASKGGMKLMTKTLALEYAPKGIRVNNIGPGAINTTINAEKFADPKQKADVESMIPMGYIGEPEEIAAVAAWLASKEASYVTGITLFADGGMTVYPSFQAGRG",0.09,inhibition,showed response to glucose addition,−68
